According to the supplement of paper PMC9170038:

Tested on: MS2 coat protein
Assay: apparent KD of MS2 coat protein; designed switch direction (-1 OFF switch, 1 ON switch): -1; higher = weaker reporter binding
Summary of the method: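 An oligonucleotide input, 200 uM small-molecule ligand, or no input was present during titration of SNAP-549-labelled MS2 coat protein, which was doubled from 0.7 or 1.5 nM to 3 µM. Designed RNA switches had been transcribed on Illumina chips by stalled E. coli RNA polymerase. Apparent KD per design is the median over clusters of curves fitted to normalised cluster fluorescence.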

[1] = input ligand: microRNA oligo, concentration not stated
[2] = Eterna round: R95, input ligand: microRNA oligo, concentration not stated
[3] = Eterna round: R95, input ligand: FMN 200 uM
[4] = Eterna round: R95, input ligand: none

Sequence | apparent KD of MS2 coat protein (input ligand: FMN 200 uM) [nM] | apparent KD of MS2 coat protein (input ligand: none) [nM] | apparent KD of MS2 coat protein [1] [nM] | apparent KD of MS2 coat protein [2] [nM] | apparent KD of MS2 coat protein [3] [nM] | apparent KD of MS2 coat protein [4] [nM]
AAAUUAGCAAGUAGAUCCGACAUGAGGAUCACCCAUGUAAUCUAAUAUUACGCUGCAUGAGAGUGCGCUCGUCUUAG [Sensor-V1 #16] (Eterna round: R97, puzzle: Sensor, turn-off variant 1) | 211 | 238 | – | – | – | –
AAAUUAGCAAGUAGGUCCGACAUGAGGAUCACCCAUGUAAUCUGAAAUUACGCUGCAUGAAAGUGCGCUCGUCUUAG [Sensor-V1 #10] (Eterna round: R97, puzzle: Sensor, turn-off variant 1) | 111 | 168 | – | – | – | –
AAAUUAGCAAGUAGGUCCGACAUGAGGAUCACCCAUGUUAUCUGAAAUAACGCUGCAUGAUUGUGCGCUCGUCUUAG [Sensor-V1 #8] (Eterna round: R97, puzzle: Sensor, turn-off variant 1) | 69.1 | 73.1 | – | – | – | –
AAAUUGGUAGAGGAUAUCGUACAGGAAACGAUGCGAGAAGGCUGCACAUGAGGAUCACCCAUGUUCAGUUGCGA [EX6 #41] (Eterna round: R97, puzzle: Exclusion 6) | 17.9 | 17.6 | – | – | – | –
AAAUUGUGAGGAUAUCCAAUAUAUGACAUGAGGAUCACCCAUGUUUCCACUCGUACCUCCGGAGAAGGCACUUAAA [Ex5 #44] (Eterna round: R97, puzzle: Exclusion 5) | 27.1 | 25.5 | – | – | – | –
AACAAGCUUUAAAGAUCCUACAUGAGGAUCACCCAUGUGCUCGUCUUGUAACGUACUGUGACGAAAGUCACGGUACG [JL TOV1 3.27] (Eterna round: R97, puzzle: Sensor, turn-off variant 1) | 205 | 278 | – | – | – | –
AACAGUCUGGAGGAUAUGCUGGAUUAAUAUCUGGCAGAAGGCUUGACAUGAGGAUCACCCAUGUAAAUACUACC [Omei Ex6 A3] (Eterna round: R97, puzzle: Exclusion 6) | 25.9 | 20.8 | – | – | – | –
AACAGUGUAGGAUAUACAGGGCAAACGGCACCCGUCUCCGGACAUGAGGAUCACCCAUGUAGAAGGACACCUAU [EX2 C.16] (Eterna round: R97, puzzle: Exclusion 2) | 246 | 47.4 | – | – | – | –
AACAUGUGAGGAUAUGAGAACAGUCCGGAGGACUGUGUAAAUUAGAAGGCACAUGAGGAUCACCCAUGUGACCU [Laonar] (Eterna round: R97, puzzle: Exclusion 4) | 32.6 | 15.8 | – | – | – | –
AACCUACAUGAGGAUCACCCAUGUGAGGAUAUAUUGGUAUUGAUGUUAUUUUUUAGAGGUAGAAGGCGCGUGAU [JR_Exc1_Sub022] (Eterna round: R97, puzzle: Exclusion 1) | 15 | 14 | – | – | – | –
AACCUACAUGAGGAUCACCCAUGUGAGGAUAUAUUGUUAUGGAUGUUAUUUUGUAGUGGUAGAAGGCGCGUGAU [JR_Exc1_Sub024] (Eterna round: R97, puzzle: Exclusion 1) | 19 | 15.9 | – | – | – | –
AACCUGAGGCAAAGCUUUAGGUGUACAUGAGGAUCACCCAUGUAGGAUAUGGUAAGCAAAGCUUACCAGAAGGACAUAAUGAUG [Mat - Exclusion NG 3 - Mod of JL - D48] (Eterna round: R96, puzzle: Exclusion NG 3) | 134 | 90.2 | 70.1 | – | – | –
AACCUGAGGCUUUGCUUUAGGUUUACAUGAGGAUCACCCAUGUAGGAUAUGGUAGGCAUAGCUUACCAGAAGGACAUGAAAAUU [Mat - Exclusion NG 3 - Mod of JL - D29] (Eterna round: R96, puzzle: Exclusion NG 3) | 293 | 43.3 | 34.1 | – | – | –
AACGAUCUAGGAUAUACAUGAGGAUCACCCAUGUAAGAGCUCAAACCGAGCUCCCUCUGUAGAAGGAGGUCAAA [Atquteuson] (puzzle: Exclusion 3) | – | – | – | 48.5 | – | –
AACUCUGAGAAGGAUAUUCAGUGGGAAACGACAGAAGAAGGUUUCACAUGAGGAUCACCCAUGUCGAAUAGUGA [EX6 #75] (Eterna round: R97, puzzle: Exclusion 6) | 46.8 | 48.8 | – | – | – | –
AAGAAACAUGAGGAUCACCCAUGUGAGGAUAUGAAAAAUAAAAGAAAAGAAAGAAUAAUCAGAAGGCACAAAGG [Mat - Mod of Hog D10] (puzzle: Exclusion 1) | – | – | – | 37.3 | 51.4 | 41.4
AAGAAACAUGAGGAUCACCCAUGUGAGGAUAUGAAUAAGAAAAGAAAAGAAAGAAGAAUCAGAAGGCACAAAGG [salish99-ex1_r3_045] (puzzle: Exclusion 1) | – | – | – | 40.5 | 49.5 | 37.2
AAGAAACAUGAGGAUCACCCAUGUGAGGAUAUGACUAAGAAAAGAAAAGAAAGAAGAUUCAGAAGGCACAAAGG [salish99-ex1_r3_062] (puzzle: Exclusion 1) | – | – | – | 42.3 | 91.2 | 46.1
AAGAAACAUGAGGAUCACCCAUGUGAGGAUAUGAGAAAGAAAAGAAAAGAAAGAAGAUUCAGAAGGCACAAAGG [salish99-ex1_r3_035] (puzzle: Exclusion 1) | – | – | – | 43.9 | 91.9 | 50
AAGAAACAUGAGGAUCACCCAUGUGAGGAUAUGAUUAAGAAAAGAAAAGAAAGAAGAGUCAGAAGGCACAAAGG [salish99-ex1_r3_063] (puzzle: Exclusion 1) | – | – | – | 48.8 | 84.9 | 61.8
AAGAAACAUGAGGAUCACCCAUGUGAGGAUAUGCAAGAAAGAAAGAAAGAAAGAAGAAGCAGAAGGCACAAAGG [Gaius Turranius] (Eterna round: R96, puzzle: Exclusion 1) | 84.7 | 50.7 | 29.7 | – | – | –
AAGAACUAAGGAUAUACAUGAGGAUCACCCAUGUCUUUUACAUGUUACUGGCCCGCAUGUAGAAGGUAGAAAAG [Tianrasoed] (Eterna round: R96, puzzle: Exclusion 3) | 182 | 85 | 74.4 | – | – | –
AAGAACUUAGGAUAUACAUGAGGAUCACCCAUGUAGCUUCACUUGGGCCUGAGCCCGUGUAGAAGGAAGAAAAU [Arge] (Eterna round: R96, puzzle: Exclusion 3) | 68.3 | 73.5 | 47.6 | – | – | –
